Data on five molecules can be found in PMC6078178 (Nature, 2017).

T1: Med8 (S. cerevisiae, UniProt P38304 1-223)
T1 sequence (looked up): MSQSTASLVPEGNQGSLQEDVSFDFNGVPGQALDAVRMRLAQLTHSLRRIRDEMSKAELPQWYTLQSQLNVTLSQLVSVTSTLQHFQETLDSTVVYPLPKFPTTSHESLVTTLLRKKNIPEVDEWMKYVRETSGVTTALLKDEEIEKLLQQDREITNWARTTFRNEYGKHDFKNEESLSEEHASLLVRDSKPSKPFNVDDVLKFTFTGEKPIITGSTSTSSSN

T2: TFIIE (Tfa1 and Tfa2) (S. cerevisiae, UniProt P36100 1-482; P36145 1-328)
T2 sequence (looked up) 1: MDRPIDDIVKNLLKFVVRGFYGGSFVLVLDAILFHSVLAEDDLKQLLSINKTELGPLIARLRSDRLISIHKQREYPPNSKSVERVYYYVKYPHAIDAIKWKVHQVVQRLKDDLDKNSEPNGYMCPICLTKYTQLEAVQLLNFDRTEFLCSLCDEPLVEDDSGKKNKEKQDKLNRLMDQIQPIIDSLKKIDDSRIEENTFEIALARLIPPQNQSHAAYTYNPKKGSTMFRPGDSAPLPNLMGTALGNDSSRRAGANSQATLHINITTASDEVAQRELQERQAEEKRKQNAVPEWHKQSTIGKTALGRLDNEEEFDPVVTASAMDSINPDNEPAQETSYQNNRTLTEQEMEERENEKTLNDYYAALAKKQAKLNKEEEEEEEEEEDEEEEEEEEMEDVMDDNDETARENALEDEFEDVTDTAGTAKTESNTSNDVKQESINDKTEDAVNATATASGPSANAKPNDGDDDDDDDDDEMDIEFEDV
T2 sequence (looked up) 2: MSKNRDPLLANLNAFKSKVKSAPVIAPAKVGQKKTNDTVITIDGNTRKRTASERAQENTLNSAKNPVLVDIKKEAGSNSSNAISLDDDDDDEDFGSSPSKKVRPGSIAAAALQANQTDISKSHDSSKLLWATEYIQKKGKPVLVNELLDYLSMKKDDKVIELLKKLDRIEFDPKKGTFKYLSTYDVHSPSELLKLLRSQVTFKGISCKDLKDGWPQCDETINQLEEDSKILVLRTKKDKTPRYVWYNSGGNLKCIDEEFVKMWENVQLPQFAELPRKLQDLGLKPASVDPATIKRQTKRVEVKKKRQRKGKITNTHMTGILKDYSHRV

T3: Tfb2 (S. cerevisiae, UniProt Q02939 1-513)
T3 sequence (looked up): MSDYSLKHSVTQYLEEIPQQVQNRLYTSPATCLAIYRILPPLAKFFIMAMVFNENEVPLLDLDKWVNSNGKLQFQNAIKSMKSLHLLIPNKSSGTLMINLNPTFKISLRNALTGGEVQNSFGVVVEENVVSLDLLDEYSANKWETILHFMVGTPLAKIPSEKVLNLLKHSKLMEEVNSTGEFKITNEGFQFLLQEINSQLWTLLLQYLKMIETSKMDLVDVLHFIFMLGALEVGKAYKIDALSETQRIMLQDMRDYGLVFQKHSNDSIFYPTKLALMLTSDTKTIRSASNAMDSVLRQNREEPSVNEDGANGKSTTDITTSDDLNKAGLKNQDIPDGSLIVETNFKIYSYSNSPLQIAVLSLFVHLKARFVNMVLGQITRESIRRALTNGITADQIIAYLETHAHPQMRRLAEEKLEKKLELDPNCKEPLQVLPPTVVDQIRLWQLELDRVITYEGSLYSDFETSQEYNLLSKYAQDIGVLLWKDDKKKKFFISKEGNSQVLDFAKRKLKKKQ

T4: Ssl2 (S. cerevisiae, UniProt Q00578 1-843)
T4 sequence (looked up): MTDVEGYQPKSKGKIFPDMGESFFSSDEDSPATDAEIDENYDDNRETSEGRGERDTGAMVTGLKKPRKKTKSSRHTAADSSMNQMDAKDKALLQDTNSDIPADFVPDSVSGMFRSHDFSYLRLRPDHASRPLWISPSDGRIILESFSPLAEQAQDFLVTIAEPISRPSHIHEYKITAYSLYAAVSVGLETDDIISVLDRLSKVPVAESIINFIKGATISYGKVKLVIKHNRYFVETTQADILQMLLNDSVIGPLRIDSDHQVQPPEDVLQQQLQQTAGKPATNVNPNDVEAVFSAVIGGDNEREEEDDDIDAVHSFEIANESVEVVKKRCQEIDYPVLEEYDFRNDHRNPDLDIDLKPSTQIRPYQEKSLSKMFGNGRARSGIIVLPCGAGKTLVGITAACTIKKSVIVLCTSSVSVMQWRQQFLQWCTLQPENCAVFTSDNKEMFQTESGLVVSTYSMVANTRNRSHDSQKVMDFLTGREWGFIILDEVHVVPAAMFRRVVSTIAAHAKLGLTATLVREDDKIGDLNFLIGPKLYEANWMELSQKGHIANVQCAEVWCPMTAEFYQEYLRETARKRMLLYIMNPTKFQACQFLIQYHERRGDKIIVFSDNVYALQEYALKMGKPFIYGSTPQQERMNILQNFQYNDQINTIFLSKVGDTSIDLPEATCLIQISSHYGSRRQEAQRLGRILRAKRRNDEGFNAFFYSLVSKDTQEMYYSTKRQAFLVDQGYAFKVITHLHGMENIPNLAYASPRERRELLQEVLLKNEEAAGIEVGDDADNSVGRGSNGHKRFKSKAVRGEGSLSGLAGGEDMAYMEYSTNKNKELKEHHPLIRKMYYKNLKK

T5: Tfb1 (S. cerevisiae, UniProt P32776 1-642)
T5 sequence (looked up): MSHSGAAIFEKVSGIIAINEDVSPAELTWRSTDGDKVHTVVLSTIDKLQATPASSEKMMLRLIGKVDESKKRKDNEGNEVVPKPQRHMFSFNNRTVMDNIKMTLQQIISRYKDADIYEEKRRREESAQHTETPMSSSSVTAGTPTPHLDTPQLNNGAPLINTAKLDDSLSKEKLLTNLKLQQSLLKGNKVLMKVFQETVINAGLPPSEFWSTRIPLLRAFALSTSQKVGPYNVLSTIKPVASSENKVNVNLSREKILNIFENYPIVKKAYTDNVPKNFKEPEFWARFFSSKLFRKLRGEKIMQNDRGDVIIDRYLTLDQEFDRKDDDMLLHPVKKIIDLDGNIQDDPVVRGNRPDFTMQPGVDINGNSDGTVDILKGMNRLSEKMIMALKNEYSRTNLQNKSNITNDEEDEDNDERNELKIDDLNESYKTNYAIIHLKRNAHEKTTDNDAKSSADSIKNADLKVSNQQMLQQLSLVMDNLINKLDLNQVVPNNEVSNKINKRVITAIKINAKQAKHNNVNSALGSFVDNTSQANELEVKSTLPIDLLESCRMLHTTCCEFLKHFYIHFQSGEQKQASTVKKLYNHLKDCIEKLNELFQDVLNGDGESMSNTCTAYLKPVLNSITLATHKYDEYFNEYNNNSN

B1: Rpb4 (Pol II stalk subunit) (natural protein, S. cerevisiae)
chain: MNVSTSTFQTRRRRLKKVEEEENAATLQLGQEFQLKQINHQGEEEELIALNLSEARLVIKEALVERRRAFKRSQKKHKKKHLKHENANDETTAVEDEDDDLDEDDVNADDDDFMHSETREKELESIDVLLEQTTGGNNKDLKNTMQYLTNFSRFRDQETVGAVIQLLKSTGLHPFEVAQLGSLACDTADEAKTLIPSLNNKISDDELERILKELSNLETLY
B2: Med22 (natural protein, S. cerevisiae, UniProt P32570 1-121, looked up)
chain: MSNQALYEKLEQTRTILSVKLAELINMTTIADRNDDDEGSFAQENSELAVATTSVMMVNNQTMQLIKNVQDLLILTRSIKEKWLLNQIPVTEHSKVTRFDEKQIEELLDNCIETFVAEKTT
B3: Tfb3 (natural protein, S. cerevisiae, UniProt Q03290 1-321, looked up)
chain: MLMDEYEENKDMCPICKTDRYLSPDVKFLVNPECYHRICESCVDRIFSLGPAQCPYKGCDKILRKNKFKTQIFDDVEVEKEVDIRKRVFNVFNKTIDDFNGDLVEYNKYLEEVEDIIYKLDHGIDVAKTEEKLRTYEELNKQLIMNNLERSRTEIESFEQRQKFEKEMKLKKRLLERQIEEEERMNKEWTKKEIVNRLSTTTQDINETIEGVKNTVKLKKSSARRKLEELNRVLKNNPYFNSNVNVQNSRLKDAVPFTPFNGDREAHPRFTLKGSVYNDPFIKDLEHRKEFIASGFNTNYAYERVLTEAFMGLGCVISEEL
B4: Rpb7 (Pol II stalk subunit) (natural protein, S. cerevisiae, UniProt P34087 1-171, looked up)
chain: MFFIKDLSLNITLHPSFFGPRMKQYLKTKLLEEVEGSCTGKFGYILCVLDYDNIDIQRGRILPTDGSAEFNVKYRAVVFKPFKGEVVDGTVVSCSQHGFEVQVGPMKVFVTKHLMPQDLTFNAGSNPPSYQSSEDVITIKSRIRVKIEGCISQVSSIHAIGSIKEDYLGAI
B5: Tfa1 (TFIIE subunit) (natural protein, S. cerevisiae, UniProt P36100 1-482, looked up)
chain: T2 sequence (looked up) 1

One experiment deals with T1, Med8. Put plainly: cryo-EM structure.
Experiment [1] addresses B1. Put plainly: cryo-EM structure.
Another experiment has as its target T2, TFIIE (Tfa1 and Tfa2). Description: cryo-EM structure.
The target of the experiment “Tfb3” is B3. Description: cryo-EM structure.
For another experiment, the target named is T3, Tfb2. Put plainly: cross-linking.
In the next experiment the target is T4, Ssl2. Description: cryo-EM structure.
The target in another experiment is T5, Tfb1. Description: cryo-EM structure.

Regarding B1, the binding result in the experiment with Med8 was “binds”.
Take B2: the binding result in experiment [1] is reported as “binds”.
With B3, the binding result with TFIIE (Tfa1 and Tfa2) is listed as “binds”.
Turning to B4, in the experiment with Tfb3, the binding result was “binds”.
Consider B5, for which the binding result with Tfb2, in the experiment with Ssl2 and with Tfb1 was “binds” throughout.
